In paper PMC3498520 (Journal of the American Chemical Society, 2012):

Format: biochemical
Conditions: total turnovers in ART hydroxylation; purified P450, NADPH regeneration system, 12 h

B1: wild-type P450BM3: catalytically self-sufficient fatty acid monooxygenase P450BM3 from Bacillus megaterium (protein, UniProt P14779 1-1049, looked up)
Bifunctional cytochrome …: MTIKEMPQPKTFGELKNLPLLNTDKPVQALMKIADELGEIFKFEAPGRVTRYLSSQRLIKEACDESRFDKNLSQALKFVRDFAGDGLFTSWTHEKNWKKAHNILLPSFSQQAMKGYHAMMVDIAVQLVQKWERLNADEHIEVPEDMTRLTLDTIGLCGFNYRFNSFYRDQPHPFITSMVRALDEAMNKLQRANPDDPAYDENKRQFQEDIKVMNDLVDKIIADRKASGEQSDDLLTHMLNGKDPETGEPLDDENIRYQIITFLIAGHETTSGLLSFALYFLVKNPHVLQKAAEEAARVLVDPVPSYKQVKQLKYVGMVLNEALRLWPTAPAFSLYAKEDTVLGGEYPLEKGDELMVLIPQLHRDKTIWGDDVEEFRPERFENPSAIPQHAFKPFGNGQRACIGQQFALHEATLVLGMMLKHFDFEDHTNYELDIKETLTLKPEGFVVKAKSKKIPLGGIPSPSTEQSAKKVRKKAENAHNTPLLVLYGSNMGTAEGTARDLADIAMSKGFAPQVATLDSHAGNLPREGAVLIVTASYNGHPPDNAKQFVDWLDQASADEVKGVRYSVFGCGDKNWATTYQKVPAFIDETLAAKGAENIADRGEADASDDFEGTYEEWREHMWSDVAAYFNLDIENSEDNKSTLSLQFVDSAADMPLAKMHGAFSTNVVASKELQQPGSARSTRHLEIELPKEASYQEGDHLGVIPRNYEGIVNRVTARFGLDASQQIRLEAEEEKLAHLPLAKTVSVEELLQYVELQDPVTRTQLRAMAAKTVCPPHKVELEALLEKQAYKEQVLAKRLTMLELLEKYPACEMKFSEFIALLPSIRPRYYSISSSPRVDEKQASITVSVVSGEAWSGYGEYKGIASNYLAELQEGDTITCFISTPQSEFTLPKDPETPLIMVGPGTGVAPFRGFVQARKQLKEQGQSLGEAHLYFGCRSPHEDYLYQEELENAQSEGIITLHTAFSRMPNQPKTYVQHVMEQDGKKLIELLDQGAHFYICGDGSQMAPAVEATLMKSYADVHQVSEADARLWLQQLEEKGRYAKDVWAG
Q: Which TTN does the source give for B1 here?
A: no ART-oxidation activity
